The series has as its system Saccharomyces cerevisiae. Briefly: protein stability index of tFT-peptide fusion (C-terminal peptide) (PSI (0-1 scale)); higher = more stable (slower turnover). The settings on record: temperature: 30 C. The method, then:
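MPS profiling in S. cerevisiae of the yeast C-terminome library: the last 12 aa of each annotated ORF are fused to the C-terminus of a sfGFP-mCherry timer, after a GGGS linker. Cells are FACS-sorted into 8 mCherry/sfGFP bins and deep-sequenced. PSI runs from 0 (unstable) to 1 (stable); wild type and das1Δ backgrounds, two technical replicates each.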

Where [1] appears, read: genetic background: das1 deletion.

± gives the standard deviation of the averaged measurements.

As to LEYLQDTYQVLK [FAR3 C-terminal 12 aa], the protein stability index is, setting by setting: under setting [1], 0.702 ± 0.031; (genetic background: wild type) 0.733 ± 0.01.

On to LEYYSNRDNDMN [RIF1 C-terminal 12 aa], for which the protein stability index runs as follows: under setting [1], 0.672 ± 0.042; (genetic background: wild type) 0.69 ± 0.026.

Regarding LFSDKMEPLFKK [AIF1 C-terminal 12 aa], the protein stability index is, setting by setting: under setting [1], 0.746 ± 0.018; (genetic background: wild type) 0.738 ± 0.012.

As for LGIVIKRGKSLK [YJU2 C-terminal 12 aa], the protein stability index was found to be 0.7248 ± 0.0027 under setting [1] and 0.738 ± 0.024 (genetic background: wild type).

On to LGVVSKMLVTCK [CIA2 C-terminal 12 aa], for which the protein stability index under setting [1] came to 0.303 ± 0.026 and the protein stability index (genetic background: wild type) was determined as 0.326 ± 0.0041.

As to LIALNRYIEDLH [MRP20 C-terminal 12 aa], the protein stability index under setting [1] amounted to 0.6999 ± 0.0024 and the protein stability index (genetic background: wild type) amounted to 0.695 ± 0.007.

LIEDVNKLKIKA [SOV1 C-terminal 12 aa]: the protein stability index by setting is: under setting [1], 0.634 ± 0.029; (genetic background: wild type) 0.645 ± 0.025.

On to LISRRREDEERN [YPL216W C-terminal 12 aa], for which the protein stability index is, setting by setting: under setting [1], 0.788 ± 0.038; (genetic background: wild type) 0.726 ± 0.037.

With LIVVLLLLLLVL [SYN8 C-terminal 12 aa], the protein stability index by setting is: under setting [1], 0.446 ± 0.0069; (genetic background: wild type) 0.545 ± 0.12.

With LKEASRYILEVY [MET10 C-terminal 12 aa], the protein stability index reads like this: under setting [1], 0.28 ± 0.013; (genetic background: wild type) 0.31 ± 0.0096.

LKGILNLFSKIR [KRE29 C-terminal 12 aa]: the protein stability index reads like this: under setting [1], 0.671 ± 0.0078; (genetic background: wild type) 0.699 ± 0.025.

In turn, LKHFVSAPSSSL [MRK1 C-terminal 12 aa] registered a protein stability index under setting [1] of 0.699 ± 0.011 and a protein stability index (genetic background: wild type) of 0.656 ± 0.0095.

For LKNKKKLYKTKV [PPQ1 C-terminal 12 aa], the protein stability index by setting is: under setting [1], 0.7157 ± 0.0043; (genetic background: wild type) 0.694 ± 0.017.

In the case of LKTSGRYQEDVW [NCP1 C-terminal 12 aa], the protein stability index by setting is: under setting [1], 0.706 ± 0.02; (genetic background: wild type) 0.702 ± 0.02.

In turn, LLEVSDQAFEPE [RGD1 C-terminal 12 aa] returned a protein stability index under setting [1] of 0.6967 ± 0.0019 and a protein stability index (genetic background: wild type) of 0.683 ± 0.053.

For the sequence LLGENLSDMPSL [RDS1 C-terminal 12 aa], the protein stability index amounted to 0.6893 ± 0.0025 under setting [1] and 0.693 ± 0.021 (genetic background: wild type).

Regarding LLQHPWLDAHII [STE11 C-terminal 12 aa], the protein stability index stood at 0.722 ± 0.028 under setting [1] and 0.7253 ± 0.0019 (genetic background: wild type).

Take LLQVCFIGVVCE [IRC21 C-terminal 12 aa]: the protein stability index under setting [1] stood at 0.275 ± 0.0082 and the protein stability index (genetic background: wild type) turned out to be 0.2885 ± 0.0018.

With LNAVESLKEAST [TIM11 C-terminal 12 aa], the protein stability index amounted to 0.69 ± 0.0078 under setting [1] and 0.686 ± 0.029 (genetic background: wild type).

For LNKIKNIRKKKQ [SNQ2 C-terminal 12 aa], the protein stability index amounted to 0.705 ± 0.031 under setting [1] and 0.393 ± 0.021 (genetic background: wild type).

The sequence LNLPVQVEKKEK [MMR1 C-terminal 12 aa] returned a protein stability index under setting [1] of 0.69221 ± 0.00034 and a protein stability index (genetic background: wild type) of 0.692 ± 0.013.

As for LNSYEEEANGST [SHG1 C-terminal 12 aa], the protein stability index by setting is: under setting [1], 0.7062 ± 0.0036; (genetic background: wild type) 0.734 ± 0.028.

Consider LQHYRTHLKKGQ [NRG1 C-terminal 12 aa], for which the protein stability index runs as follows: under setting [1], 0.7007 ± 0.0015; (genetic background: wild type) 0.6784 ± 0.0039.

LQSLPISSWRCT [YBR220C C-terminal 12 aa]: the protein stability index under setting [1] was 0.701 ± 0.0098 and the protein stability index (genetic background: wild type) was determined as 0.6711 ± 0.003.

As for LQVILMSLGAIA [MDM31 C-terminal 12 aa], the protein stability index under setting [1] came to 0.446 ± 0.014 and the protein stability index (genetic background: wild type) was 0.508 ± 0.0098.

Turning to LRANANMPTPSL [RLF2 C-terminal 12 aa], the protein stability index was determined as 0.7083 ± 0.0022 under setting [1] and 0.665 ± 0.0083 (genetic background: wild type).

Regarding LRKDRQVEYPYK [MGM101 C-terminal 12 aa], the protein stability index runs as follows: under setting [1], 0.723 ± 0.033; (genetic background: wild type) 0.779 ± 0.035.

Take LRLKYNDANTKL [VTC1 C-terminal 12 aa]: the protein stability index under setting [1] was found to be 0.68 ± 0.011 and the protein stability index (genetic background: wild type) came out at 0.6552 ± 0.0047.

With LSCRKNLSAFAT [YOL085C C-terminal 12 aa], the protein stability index runs as follows: under setting [1], 0.658 ± 0.018; (genetic background: wild type) 0.666 ± 0.0096.

Regarding “LSIMKTLVPWTL [YML054C-A C-terminal 12 aa]”, the protein stability index reads like this: under setting [1], 0.712 ± 0.024; (genetic background: wild type) 0.6528 ± 0.0022.

As for LTEILSKVFNRL [DUG2 C-terminal 12 aa], the protein stability index is, setting by setting: under setting [1], 0.702 ± 0.018; (genetic background: wild type) 0.678 ± 0.033.

On to LTFDVKLVSMKN [FPR3 C-terminal 12 aa], for which the protein stability index runs as follows: under setting [1], 0.679 ± 0.025; (genetic background: wild type) 0.667 ± 0.046.

As to LTLARYRAKGML [TOM71 C-terminal 12 aa], the protein stability index by setting is: under setting [1], 0.6936 ± 0.0042; (genetic background: wild type) 0.657 ± 0.018.

LVICCQRCRRNC [YPL277C C-terminal 12 aa]: the protein stability index reads like this: under setting [1], 0.69 ± 0.0082; (genetic background: wild type) 0.552 ± 0.051.

Consider LVKLYISFFFMC [YBR144C C-terminal 12 aa], for which the protein stability index runs as follows: under setting [1], 0.313 ± 0.0049; (genetic background: wild type) 0.136 ± 0.0087.

For the sequence LVLLLQIYFFSF [YGR242W C-terminal 12 aa], the protein stability index reads like this: under setting [1], 0.277 ± 0.03; (genetic background: wild type) 0.296 ± 0.0078.

With LVRQKREHEKKE [GPT2 C-terminal 12 aa], the protein stability index under setting [1] is 0.713 ± 0.0084 and the protein stability index (genetic background: wild type) was found to be 0.658 ± 0.021.

Consider LVYRDGEISELK [PAT1 C-terminal 12 aa], for which the protein stability index stood at 0.7114 ± 0.0045 under setting [1] and 0.703 ± 0.13 (genetic background: wild type).

LWNEFLSSINEK [ECM31 C-terminal 12 aa]: the protein stability index was 0.736 ± 0.036 under setting [1] and 0.743 ± 0.06 (genetic background: wild type).

Take MAMPPGQSQPQY [DHH1 C-terminal 12 aa]: the protein stability index runs as follows: under setting [1], 0.727 ± 0.0093; (genetic background: wild type) 0.713 ± 0.034.

Consider MCSIINIQQWYV [YGL182C C-terminal 12 aa], for which the protein stability index runs as follows: under setting [1], 0.6733 ± 0.0013; (genetic background: wild type) 0.627 ± 0.01.

As for MDGFNDPFAAAA [GIP2 C-terminal 12 aa], the protein stability index worked out at 0.736 ± 0.028 under setting [1] and 0.752 ± 0.072 (genetic background: wild type).

Turning to “MDSGLDLEFCKP [YKR075W-A C-terminal 12 aa]”, the protein stability index reads like this: under setting [1], 0.687 ± 0.019; (genetic background: wild type) 0.692 ± 0.045.

As to MESNDNLERVLS [APS1 C-terminal 12 aa], the protein stability index is, setting by setting: under setting [1], 0.673 ± 0.038; (genetic background: wild type) 0.695 ± 0.032.

For the sequence MISGPSSSSSAP [CYC3 C-terminal 12 aa], the protein stability index by setting is: under setting [1], 0.719 ± 0.012; (genetic background: wild type) 0.741 ± 0.081.

Regarding MKVLQLGFSWGG [IRC7 C-terminal 12 aa], the protein stability index reads like this: under setting [1], 0.7148 ± 0.0053; (genetic background: wild type) 0.6814 ± 0.0067.

MMNFFRDLKYGH [ODC2 C-terminal 12 aa]: the protein stability index by setting is: under setting [1], 0.704 ± 0.004; (genetic background: wild type) 0.693 ± 0.018.

For the sequence MNKAEDDISEEE [SUB1 C-terminal 12 aa], the protein stability index worked out at 0.713 ± 0.029 under setting [1] and 0.684 ± 0.011 (genetic background: wild type).

Consider “MNRNKSDVPYLQ [YER053C-A C-terminal 12 aa]”, for which the protein stability index under setting [1] amounted to 0.702 ± 0.014 and the protein stability index (genetic background: wild type) is 0.658 ± 0.027.

Consider MPPEHPFYSHYR [YNL193W C-terminal 12 aa], for which the protein stability index was 0.7283 ± 0.0031 under setting [1] and 0.729 ± 0.01 (genetic background: wild type).

MQTKIEHYMESI [MRX12 C-terminal 12 aa]: the protein stability index is, setting by setting: under setting [1], 0.712 ± 0.028; (genetic background: wild type) 0.68 ± 0.053.

As to MRKHLRVSPFLF [YDL071C C-terminal 12 aa], the protein stability index runs as follows: under setting [1], 0.711 ± 0.016; (genetic background: wild type) 0.329 ± 0.0068.

As to MVVIVLFLSYRN [YGL177W C-terminal 12 aa], the protein stability index by setting is: under setting [1], 0.276 ± 0.034; (genetic background: wild type) 0.275 ± 0.031.

MWPMPSLPWNGM [TSR1 C-terminal 12 aa]: the protein stability index under setting [1] was 0.727 ± 0.019 and the protein stability index (genetic background: wild type) came to 0.687 ± 0.017.

On to NAASLIGTQQNN [DNF1 C-terminal 12 aa], for which the protein stability index under setting [1] was 0.709 ± 0.013 and the protein stability index (genetic background: wild type) was 0.685 ± 0.013.

On to NALKSKQKNKDD [AYR1 C-terminal 12 aa], for which the protein stability index reads like this: under setting [1], 0.684 ± 0.0082; (genetic background: wild type) 0.698 ± 0.044.

Regarding NCPGCESKPVIT [SSL1 C-terminal 12 aa], the protein stability index reads like this: under setting [1], 0.678 ± 0.016; (genetic background: wild type) 0.683 ± 0.0096.

For NDDSKDEVDIIP [YPR196W C-terminal 12 aa], the protein stability index reads like this: under setting [1], 0.69 ± 0.013; (genetic background: wild type) 0.698 ± 0.015.

In the case of NDISFAFQYISH [RAD54 C-terminal 12 aa], the protein stability index is 0.749 ± 0.014 under setting [1] and 0.683 ± 0.069 (genetic background: wild type).

Consider NDNHNPFYIREE [CDC26 C-terminal 12 aa], for which the protein stability index by setting is: under setting [1], 0.723 ± 0.021; (genetic background: wild type) 0.705 ± 0.049.

As to NEKLSRESKGSE [SYF2 C-terminal 12 aa], the protein stability index is, setting by setting: under setting [1], 0.687 ± 0.01; (genetic background: wild type) 0.691 ± 0.014.

As for NENEFIAICTDS [CDC31 C-terminal 12 aa], the protein stability index by setting is: under setting [1], 0.698 ± 0.02; (genetic background: wild type) 0.695 ± 0.022.

Take NENIHSLIGNSY [NNF2 C-terminal 12 aa]: the protein stability index is 0.702 ± 0.023 under setting [1] and 0.693 ± 0.0087 (genetic background: wild type).

For NENSEIISIDED [CTR86 C-terminal 12 aa], the protein stability index reads like this: under setting [1], 0.676 ± 0.0078; (genetic background: wild type) 0.65 ± 0.023.

On to NFQREVIDNSKL [LDH1 C-terminal 12 aa], for which the protein stability index worked out at 0.697 ± 0.015 under setting [1] and 0.719 ± 0.067 (genetic background: wild type).

Take NGKKNEAYEGFV [EXP1 C-terminal 12 aa]: the protein stability index under setting [1] stood at 0.699 ± 0.015 and the protein stability index (genetic background: wild type) stood at 0.722 ± 0.014.

NIIHSGDVLLAE [LEU9 C-terminal 12 aa]: the protein stability index by setting is: under setting [1], 0.677 ± 0.019; (genetic background: wild type) 0.708 ± 0.035.

Values taken from the supplement of paper PMC10724198.
